Biological target: Staphylococcus aureus enterotoxin C3, wild type (Staphylococcus aureus) (UniProt P0A0L5)
Test: ITC

variable domain of the murine T cell receptor (TCR) β chain 8.2 (domain or fragment)
dH: -20.4 kJ/mol
